Results reported in patent US20200262873A1.

Molecular target: human IgG (IgG Sepharose 6 Fast Flow, GE Healthcare Biosciences Corp.) (human)
Assay: IgG Sepharose 6 Fast Flow column; bound at neutral pH, eluted at pH 3.0 then pH 2.5; peak area A/(A+B)

Antibody dissociation rate (%) at pH 3.0 [%]	Binder
80	Recombinant immunoglobulin κ light chain binding protein KBP8 (designed binder) KETPETPEEPKEEVTIKVNLIFADGKTQTATFKGTFEKATAEAYRYADLLAKVNGEYTADLEDGGYTINIKFAGKKETPETPEEPKEEVTIKVNLIFADGKTQTATFKGTFEKATAEAYRYADLLAKVNGEYTADLEDGGYTINIKFAGKKETPETPEEPKEEVTIKVNLIFADGKTQTATFKGTFEKATAEAYRYADLLAKVNGEYTADLEDGGYTINIKFAGKKETPETPEEPKEEVTIKVNLIFADGKTQTATFKGTFEKATAEAYRYADLLAKVNGEYTADLEDGGYTINIKFAGK
95	Recombinant immunoglobulin κ light chain binding protein KBP1 (designed binder) KETPETPEEPKEEVTHKVNLIFADGKTQTATFKGTFEEATAEAYRYADLLAKVNGEYTADLEDGGYTINIKFAGKKETPETPEEPKEEVTHKVNLIFADGKTQTATFKGTFEEATAEAYRYADLLAKVNGEYTADLEDGGYTINIKFAGKKETPETPEEPKEEVTHKVNLIFADGKTQTATFKGTFEEATAEAYRYADLLAKVNGEYTADLEDGGYTINIKFAGKKETPETPEEPKEEVTHKVNLIFADGKTQTATFKGTFEEATAEAYRYADLLAKVNGEYTADLEDGGYTINIKFAGK
97	Recombinant immunoglobulin κ light chain binding protein KBP7 (designed binder) KETPETPEEPKEEVTIKVNLIFADGKTQTATFKHTFEEATAEAYRYADLLAKVNGEYTADLEDGGYTINIKFAGKKETPETPEEPKEEVTIKVNLIFADGKTQTATFKHTFEEATAEAYRYADLLAKVNGEYTADLEDGGYTINIKFAGKKETPETPEEPKEEVTIKVNLIFADGKTQTATFKHTFEEATAEAYRYADLLAKVNGEYTADLEDGGYTINIKFAGKKETPETPEEPKEEVTIKVNLIFADGKTQTATFKHTFEEATAEAYRYADLLAKVNGEYTADLEDGGYTINIKFAGK
92	Recombinant immunoglobulin κ light chain binding protein KBP6 (designed binder) KETPETPEEPKEEVTIKVNLIFADGKTQTATHKGTFEEATAEAYRYADLLAKVNGEYTADLEDGGYTINIKFAGKKETPETPEEPKEEVTIKVNLIFADGKTQTATHKGTFEEATAEAYRYADLLAKVNGEYTADLEDGGYTINIKFAGKKETPETPEEPKEEVTIKVNLIFADGKTQTATHKGTFEEATAEAYRYADLLAKVNGEYTADLEDGGYTINIKFAGKKETPETPEEPKEEVTIKVNLIFADGKTQTATHKGTFEEATAEAYRYADLLAKVNGEYTADLEDGGYTINIKFAGK
99	Recombinant immunoglobulin κ light chain binding protein KBP11 (designed binder) KETPETPEEPKEEVTIKVNLIFADGKTQTATFKGTFEEATAEAYRYADLLAKVNGEYTADLEDGGYTINHKFAGKKETPETPEEPKEEVTIKVNLIFADGKTQTATFKGTFEEATAEAYRYADLLAKVNGEYTADLEDGGYTINHKFAGKKETPETPEEPKEEVTIKVNLIFADGKTQTATFKGTFEEATAEAYRYADLLAKVNGEYTADLEDGGYTINHKFAGKKETPETPEEPKEEVTIKVNLIFADGKTQTATFKGTFEEATAEAYRYADLLAKVNGEYTADLEDGGYTINHKFAGK
98	Recombinant immunoglobulin κ light chain binding protein KBP2 (designed binder) KETPETPEEPKEEVTIKHNLIFADGKTQTATFKGTFEEATAEAYRYADLLAKVNGEYTADLEDGGYTINIKFAGKKETPETPEEPKEEVTIKHNLIFADGKTQTATFKGTFEEATAEAYRYADLLAKVNGEYTADLEDGGYTINIKFAGKKETPETPEEPKEEVTIKHNLIFADGKTQTATFKGTFEEATAEAYRYADLLAKVNGEYTADLEDGGYTINIKFAGKKETPETPEEPKEEVTIKHNLIFADGKTQTATFKGTFEEATAEAYRYADLLAKVNGEYTADLEDGGYTINIKFAGK
100	Recombinant immunoglobulin κ light chain binding protein KBP12 (designed binder) KETPETPEEPKEEVTIKVNLIFADGRTQTATFKHRFEEATAKAYRYADLLAKVQGEYTADLEDGGYTINIKFAGKKETPETPEEPKEEVTIKVNLIFADGRTQTATFKHRFEEATAKAYRYADLLAKVQGEYTADLEDGGYTINIKFAGKKETPETPEEPKEEVTIKVNLIFADGRTQTATFKHRFEEATAKAYRYADLLAKVQGEYTADLEDGGYTINIKFAGKKETPETPEEPKEEVTIKVNLIFADGRTQTATFKHRFEEATAKAYRYADLLAKVQGEYTADLEDGGYTINIKFAGK
100	Recombinant immunoglobulin κ light chain binding protein KBP13 (designed binder) KETPETPEEPKEEVTIKVNLIFADGRTQTATFKGRFEEATAKAYRYADLLAKVQGEHTADLEDGGYTINIKFAGKKETPETPEEPKEEVTIKVNLIFADGRTQTATFKGRFEEATAKAYRYADLLAKVQGEHTADLEDGGYTINIKFAGKKETPETPEEPKEEVTIKVNLIFADGRTQTATFKGRFEEATAKAYRYADLLAKVQGEHTADLEDGGYTINIKFAGKKETPETPEEPKEEVTIKVNLIFADGRTQTATFKGRFEEATAKAYRYADLLAKVQGEHTADLEDGGYTINIKFAGK

The next lines start with the binder.

Binder	Antibody dissociation rate (%) at pH 3.0 [%]
Recombinant type immunoglobulin κ light chain binding protein KBP0 (designed binder) KETPETPEEPKEEVTIKVNLIFADGKTQTATFKGTFEEATAEAYRYADLLAKVNGEYTADLEDGGYTINIKFAGKKETPETPEEPKEEVTIKVNLIFADGKTQTATFKGTFEEATAEAYRYADLLAKVNGEYTADLEDGGYTINIKFAGKKETPETPEEPKEEVTIKVNLIFADGKTQTATFKGTFEEATAEAYRYADLLAKVNGEYTADLEDGGYTINIKFAGKKETPETPEEPKEEVTIKVNLIFADGKTQTATFKGTFEEATAEAYRYADLLAKVNGEYTADLEDGGYTINIKFAGK	50
Recombinant immunoglobulin κ light chain binding protein KBP4 (designed binder) KETPETPEEPKEEVTIKVNLIFADGKTHTATFKGTFEEATAEAYRYADLLAKVNGEYTADLEDGGYTINIKFAGKKETPETPEEPKEEVTIKVNLIFADGKTHTATFKGTFEEATAEAYRYADLLAKVNGEYTADLEDGGYTINIKFAGKKETPETPEEPKEEVTIKVNLIFADGKTHTATFKGTFEEATAEAYRYADLLAKVNGEYTADLEDGGYTINIKFAGKKETPETPEEPKEEVTIKVNLIFADGKTHTATFKGTFEEATAEAYRYADLLAKVNGEYTADLEDGGYTINIKFAGK	95
Recombinant immunoglobulin κ light chain binding protein KBP5 (designed binder) KETPETPEEPKEEVTIKVNLIFADGKTQTHTFKGTFEEATAEAYRYADLLAKVNGEYTADLEDGGYTINIKFAGKKETPETPEEPKEEVTIKVNLIFADGKTQTHTFKGTFEEATAEAYRYADLLAKVNGEYTADLEDGGYTINIKFAGKKETPETPEEPKEEVTIKVNLIFADGKTQTHTFKGTFEEATAEAYRYADLLAKVNGEYTADLEDGGYTINIKFAGKKETPETPEEPKEEVTIKVNLIFADGKTQTHTFKGTFEEATAEAYRYADLLAKVNGEYTADLEDGGYTINIKFAGK	92
Recombinant immunoglobulin κ light chain binding protein KBP10 (designed binder) KETPETPEEPKEEVTIKVNLIFADGKTQTATFKGTFEEATAEAYRYADLLAKVNGEHTADLEDGGYTINIKFAGKKETPETPEEPKEEVTIKVNLIFADGKTQTATFKGTFEEATAEAYRYADLLAKVNGEHTADLEDGGYTINIKFAGKKETPETPEEPKEEVTIKVNLIFADGKTQTATFKGTFEEATAEAYRYADLLAKVNGEHTADLEDGGYTINIKFAGKKETPETPEEPKEEVTIKVNLIFADGKTQTATFKGTFEEATAEAYRYADLLAKVNGEHTADLEDGGYTINIKFAGK	97
Recombinant immunoglobulin κ light chain binding protein KBP3 (designed binder) KETPETPEEPKEEVTIKVNHIFADGKTQTATFKGTFEEATAEAYRYADLLAKVNGEYTADLEDGGYTINIKFAGKKETPETPEEPKEEVTIKVNHIFADGKTQTATFKGTFEEATAEAYRYADLLAKVNGEYTADLEDGGYTINIKFAGKKETPETPEEPKEEVTIKVNHIFADGKTQTATFKGTFEEATAEAYRYADLLAKVNGEYTADLEDGGYTINIKFAGKKETPETPEEPKEEVTIKVNHIFADGKTQTATFKGTFEEATAEAYRYADLLAKVNGEYTADLEDGGYTINIKFAGK	95
Recombinant immunoglobulin κ light chain binding protein KBP9 (designed binder) KETPETPEEPKEEVTIKVNLIFADGKTQTATFKGTFEEATAKAYRYADLLAKVNGEYTADLEDGGYTINIKFAGKKETPETPEEPKEEVTIKVNLIFADGKTQTATFKGTFEEATAKAYRYADLLAKVNGEYTADLEDGGYTINIKFAGKKETPETPEEPKEEVTIKVNLIFADGKTQTATFKGTFEEATAKAYRYADLLAKVNGEYTADLEDGGYTINIKFAGKKETPETPEEPKEEVTIKVNLIFADGKTQTATFKGTFEEATAKAYRYADLLAKVNGEYTADLEDGGYTINIKFAGK	95
Recombinant immunoglobulin κ light chain binding protein KBP14 (designed binder) KETPETPEEPKEEVTIKVNLIFADGRTQTATHKGRFEEATAKAYRYADLLAKVQGEYTADLEDGGYTINIKFAGKKETPETPEEPKEEVTIKVNLIFADGRTQTATHKGRFEEATAKAYRYADLLAKVQGEYTADLEDGGYTINIKFAGKKETPETPEEPKEEVTIKVNLIFADGRTQTATHKGRFEEATAKAYRYADLLAKVQGEYTADLEDGGYTINIKFAGKKETPETPEEPKEEVTIKVNLIFADGRTQTATHKGRFEEATAKAYRYADLLAKVQGEYTADLEDGGYTINIKFAGK	100
